Reference: US20220204583A1 (published 2022)
Substitutions are numbered along the chain they refer to.

B1: VLR-Fc-46 (Fc fusion)
chain: ACPSQCSCSGTTVDCSGKSLASVPTGIPTTTRWLHLHRNQLTKLEPGVFDSLTQLTYLNLGGNQLTALPVGVFDKLTNLKELKLYSNQLQALSEGLFDRLGKLQHLDLSKNQLKSIPHGAFDRLSSLTHAYLFGNPWDCECRDIMYLRNWVADHTSIVMRWDGKAVNDPDSAKCAGTNTPVRAVTEASTSPSKCPGYVAT
B2: VLR-Fc-11 (Fc fusion)
chain: B1 chain with T12E, D14R, S16E, G17S, K18R, T25A, W33R
B3: VLR-Fc-30 (Fc fusion)
chain: B1 chain with R32Q, W33I, H35R, H37Y, L41I

Biological target: MBECs (cultured cells)
Assay: equilibrium titration on cultured MBECs; apparent affinity

| Binder | Kd |
| --- | --- |
| B1 | 0.0682 µM |
| B2 | 0.0104 µM |
| B3 | 0.0054 µM |
